Measured values reported in paper PMC12416549 (2024).
Residue numbers refer to the chain shown, from its start. Names may count otherwise.

T1: TNFR1 (Homo sapiens, UniProt P19438)
T1 chain: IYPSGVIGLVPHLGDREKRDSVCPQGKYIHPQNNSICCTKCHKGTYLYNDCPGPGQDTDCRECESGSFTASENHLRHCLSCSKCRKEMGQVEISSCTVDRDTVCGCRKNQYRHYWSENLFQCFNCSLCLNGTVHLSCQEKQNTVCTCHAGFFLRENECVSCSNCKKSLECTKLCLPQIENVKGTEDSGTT

B1: Y37F (designed binder)
chain: MTLQELLREEALRRAEAEAFRYALELLAEKFPEQKEFLLDLAEEIESQIRSLSGVDVEDVRKFLDKEWAWVKELLAEHPAELAEVEAARAARLAELRAEVEAKVAA
B2: E86T (designed binder)
chain: B1 chain with F37Y, E86T
B3: Y22H (designed binder)
chain: B1 chain with Y22H, F37Y
B4: A76D (designed binder)
chain: B1 chain with F37Y, A76D
B5: F63N (designed binder)
chain: B1 chain with F37Y, F63N
B6: L12Y (designed binder)
chain: B1 chain with L12Y, F37Y
B7: A88M (designed binder)
chain: B1 chain with F37Y, A88M
B8: L75P (designed binder)
chain: B1 chain with F37Y, L75P
B9: R14T (designed binder)
chain: B1 chain with R14T, F37Y
B10: V85S (designed binder)
chain: B1 chain with F37Y, V85S
B11: R97T (designed binder)
chain: B1 chain with F37Y, R97T
B12: A94P (designed binder)
chain: B1 chain with F37Y, A94P
B13: L27S (designed binder)
chain: B1 chain with L27S, F37Y
B14: A94I (designed binder)
chain: B1 chain with F37Y, A94I
B15: H78V (designed binder)
chain: B1 chain with F37Y, H78V
B16: S53D (designed binder)
chain: B1 chain with F37Y, S53D
B17: E9M (designed binder)
chain: B1 chain with E9M, F37Y
B18: A23D (designed binder)
chain: B1 chain with A23D, F37Y
B19: R8I (designed binder)
chain: B1 chain with R8I, F37Y
B20: H78R (designed binder)
chain: B1 chain with F37Y, H78R
B21: A15K (designed binder)
chain: B1 chain with A15K, F37Y
B22: R21Q (designed binder)
chain: B1 chain with R21Q, F37Y
B23: L82E (designed binder)
chain: B1 chain with F37Y, L82E
B24: G54K (designed binder)
chain: B1 chain with F37Y, G54K
B25: L7N (designed binder)
chain: B1 chain with L7N, F37Y
B26: E86M (designed binder)
chain: B1 chain with F37Y, E86M
B27: E29D (designed binder)
chain: B1 chain with E29D, F37Y
B28: A90K (designed binder)
chain: B1 chain with F37Y, A90K
B29: E86K (designed binder)
chain: B1 chain with F37Y, E86K
B30: E67C (designed binder)
chain: B1 chain with F37Y, E67C
B31: A94E (designed binder)
chain: B1 chain with F37Y, A94E
B32: E33Y (designed binder)
chain: B1 chain with E33Y, F37Y
B33: V60M (designed binder)
chain: B1 chain with F37Y, V60M
B34: A23V (designed binder)
chain: B1 chain with A23V, F37Y
B35: I45S (designed binder)
chain: B1 chain with F37Y, I45S
B36: K62G (designed binder)
chain: B1 chain with F37Y, K62G
B37: A102S (designed binder)
chain: B1 chain with F37Y, A102S
B38: A28L (designed binder)
chain: B1 chain with A28L, F37Y
B39: A76Y (designed binder)
chain: B1 chain with F37Y, A76Y
B40: A83E (designed binder)
chain: B1 chain with F37Y, A83E
B41: L3V (designed binder)
chain: B1 chain with L3V, F37Y
B42: S47K (designed binder)
chain: B1 chain with F37Y, S47K
B43: L27K (designed binder)
chain: B1 chain with L27K, F37Y
B44: K66W (designed binder)
chain: B1 chain with F37Y, K66W
B45: A80L (designed binder)
chain: B1 chain with F37Y, A80L
B46: L93F (designed binder)
chain: B1 chain with F37Y, L93F
B47: R50T (designed binder)
chain: B1 chain with F37Y, R50T
B48: R89W (designed binder)
chain: B1 chain with F37Y, R89W
B49: A94H (designed binder)
chain: B1 chain with F37Y, A94H
B50: F63I (designed binder)
chain: B1 chain with F37Y, F63I
B51: L3W (designed binder)
chain: B1 chain with L3W, F37Y
B52: E77D (designed binder)
chain: B1 chain with F37Y, E77D
B53: A17P (designed binder)
chain: B1 chain with A17P, F37Y
B54: R92W (designed binder)
chain: B1 chain with F37Y, R92W
B55: R97W (designed binder)
chain: B1 chain with F37Y, R97W
B56: A105F (designed binder)
chain: B1 chain with F37Y, A105F
B57: E29I (designed binder)
chain: B1 chain with E29I, F37Y
B58: A17K (designed binder)
chain: B1 chain with A17K, F37Y
B59: V85N (designed binder)
chain: B1 chain with F37Y, V85N

Molecular target: T1, TNFR1
Assay: yeast display SC50

| apparent Kd (screen) | Binder |
| --- | --- |
| 2.48 nM | B1 |
| 0.718 nM | B2 |
| 0.49 nM | B3 |
| 0.446 nM | B4 |
| 2.05 nM | B5 |
| 0.539 nM | B6 |
| 0.718 nM | B7 |
| 2.48 nM | B8 |
| 0.49 nM | B9 |
| 0.869 nM | B10 |
| 0.539 nM | B11 |
| 0.956 nM | B12 |
| 0.593 nM | B13 |
| 0.956 nM | B14 |
| 0.869 nM | B15 |
| 8.56 nM | B16 |
| 0.653 nM | B17 |
| 2.25 nM | B18 |
| 0.593 nM | B19 |
| 0.49 nM | B20 |

| apparent Kd (screen) | Binder |
| --- | --- |
| 0.49 nM | B21 |
| 0.539 nM | B22 |
| 2.73 nM | B23 |
| 12.5 nM | B24 |
| 24.4 nM | B25 |
| 0.79 nM | B26 |
| 0.49 nM | B27 |
| 0.446 nM | B28 |
| 1.27 nM | B29 |
| 5.84 nM | B30 |
| 0.539 nM | B31 |
| 0.539 nM | B32 |
| 0.49 nM | B33 |
| 0.653 nM | B34 |
| 7.78 nM | B35 |
| 0.869 nM | B36 |
| 0.79 nM | B37 |
| 20.2 nM | B38 |
| 0.539 nM | B39 |
| 0.593 nM | B40 |

| apparent Kd (screen) | Binder |
| --- | --- |
| 0.593 nM | B41 |
| 0.653 nM | B42 |
| 0.49 nM | B43 |
| 0.539 nM | B44 |
| 0.446 nM | B45 |
| 0.539 nM | B46 |
| 0.49 nM | B47 |
| 0.956 nM | B48 |
| 0.446 nM | B49 |
| 1.54 nM | B50 |
| 2.25 nM | B51 |
| 0.653 nM | B52 |
| 0.718 nM | B53 |
| 0.539 nM | B54 |
| 0.49 nM | B55 |
| 0.869 nM | B56 |
| 1.16 nM | B57 |
| 1.16 nM | B58 |
| 0.653 nM | B59 |
